In article PMC11930357:

What was measured:
[1] = target: Phosphorylated CSD deletion mutant of HP1α_S97A (residues 1–120, phosphorylated at Ser11–Ser14) (human) (UniProt P45973); experiment: SEC-SAXS; Superdex 200 Increase, 20 mM sodium phosphate pH 7.0, 1 mM DTT, 50 mM NaCl; Rg against concentration; profiles fitted with EOM and with reweighted CGMD ensembles (one- or two-molecule systems)
HP1α = HP1α (UniProt P45973); experiment: SEC-MALS molar mass (CSD-mediated dimer); settings: sites S11,S12,S13,S14
HP1α ΔCSD, 1-120 = HP1α ΔCSD, 1-120 (UniProt P45973); experiment: SEC-MALS molar mass; settings: reference: ΔCSD expressed without CK2; sites S11,S12,S13,S14

Sequence of HP1α (P45973 whole entry, stated change not applied): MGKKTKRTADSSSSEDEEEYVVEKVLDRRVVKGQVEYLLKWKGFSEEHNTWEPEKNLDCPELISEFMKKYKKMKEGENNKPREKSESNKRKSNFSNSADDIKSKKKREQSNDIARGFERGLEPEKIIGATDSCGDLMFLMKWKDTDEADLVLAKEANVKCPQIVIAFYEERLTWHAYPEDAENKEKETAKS
Sequence of HP1α ΔCSD, 1-120 (P45973 whole entry, stated change not applied): as above

Phosphorylated CSD deletion mutant of HP1α_S97A (residues 1–120, phosphorylated at Ser11–Ser14) (from UniProt P45973 1-120) (domain or fragment)
stoichiometry N [1]: 2

HP1α (from UniProt P45973) pHP1α co-expressed with CK2, 500 mM NaCl
other: molar mass (HP1α; reference: HP1α expressed without CK2, 500 mM NaCl): same; reference 44.5

HP1α ΔCSD, 1-120 (from UniProt P45973) pΔCSD co-expressed with CK2
other: molar mass (HP1α ΔCSD, 1-120): none in both; reference 16.3

HP1α (from UniProt P45973) pHP1α co-expressed with CK2, 50 mM NaCl
other: molar mass (HP1α; reference: HP1α expressed without CK2, 50 mM NaCl): same; reference 45.7
